Consider 1 molecule from article PMC4847155 (Biochemical Journal, 2016).

The target in this assay is Bax (Homo sapiens, UniProt Q07812). It is filed as biochemical. The following applies: 100 nM Bax, 10 μM compound or 20 nM cBid/Bim, no membranes, DSS.
Sequence of Bax (Q07812 whole entry): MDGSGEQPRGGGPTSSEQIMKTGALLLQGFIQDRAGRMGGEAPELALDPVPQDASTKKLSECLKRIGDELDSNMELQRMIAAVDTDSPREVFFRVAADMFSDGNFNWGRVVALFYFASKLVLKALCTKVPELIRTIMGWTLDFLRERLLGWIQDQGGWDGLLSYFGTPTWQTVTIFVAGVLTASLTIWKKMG

B1: cBid: known Bax activator protein, pro-apoptotic BH3 protein, recombinant (protein, UniProt P55957 61-195, looked up)
BH3-interacting domain death …: GNRSSHSRLGRIEADSESQEDIIRNIARHLAQVGDSMDRSIPPGLVNGLALQLRNTSRSEEDRNRDLATALEQLLQAYPRDMEKEKTMLVLALLLAKKVASHTPSLLRDVFHTTVNFINQNLRTYVRSLARNGMD
modifications: BH3-interacting domain death agonist p15
For the molecule B1, the “formation of dimers and higher-order Bax oligomers in solution” value is reported as “no effects”.
